Tests used:
Saccharomyces cerevisiae [1] = test: protein stability index of tFT-peptide fusion in wild type (PSI (0-1 scale)); higher = more stable (slower turnover); details: genetic background: wild type
Method: (§1)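 MPS profiling in S. cerevisiae of two library types built from selected 12-aa C-degron peptides (IN1, IN2, LN1, LN3, VN2, R1-R5, W1-W3, Atg1 and Rpa12 C-termini): saturation mutagenesis libraries and C-terminal +1 capping libraries (13 aa). Each peptide is fused to the C-terminus of a sfGFP-mCherry timer, after a GGGS linker. Cells are FACS-sorted into 8 mCherry/sfGFP bins and sequenced. PSI runs from 0 (unstable) to 1 (stable), measured once in wild type and in the das1Δ or doa10Δ background.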

Saccharomyces cerevisiae [2] = test: protein stability index of tFT-peptide fusion in deletion strain of DAS1 (PSI (0-1 scale)); higher = more stable (slower turnover)
Method: as §1
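Throughout, for protein stability index of tFT-peptide fusion in deletion strain of DAS1: PSI is a weighted mean of each variant's read distribution over the sorted stability bins, computed only for variants having over 10 reads in total.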
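Throughout, for protein stability index of tFT-peptide fusion in wild type: PSI derived as read-weighted mean over the 8 sorting bins, only variants exceeding 10 total reads kept, mCherry placed adjacent to the peptide and sfGFP distal.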

Sequence	protein stability index (Saccharomyces cerevisiae [1])	protein stability index (Saccharomyces cerevisiae [2])
GLIQPLPVQFLN	0.0806	0.62
CTSCGYKFRTNNY	0.677	0.704
PDKRNFLIKLLN	0.112	0.61
ASWRVGLWRGAS	0.516	0.703
ADWRVGLWRGAS	0.519	0.729
PSLAASMWRVVG	0.147	0.73
PDKRYHLIKLLN	0.0495	0.597
KKHKKQQKQKIN	0.0595	0.59
CWSCGYKFRTNN	0.167	0.714
RIIQPLPVQFLN	0.0603	0.598
KLHKKGQKQKIN	0.0703	0.612
LKILRQKMNWQN	0.286	0.661
LKILRQWMNHQN	0.184	0.693
PSLAASTWRVVG	0.132	0.68
FSMRWTFRYWVC	0.0396	0.403
FDKRNHLIKLLN	0.131	0.589
PSLAASFWRGVG	0.232	0.707
CTSCEYKFRTNN	0.457	0.684
PDKRNHLIKLLNL	0.298	0.665
RLIQPLPWQFLN	0.0707	0.699
LVVYLWCVACIN	0.0141	0.0851
RLIQPLLVQFLN	0.0592	0.575
PDKRNHLNKLLN	0.126	0.579
LVVYDSCVACIN	0.368	0.468
VRGAVMGWRLVG	0.154	0.71

Sequence	protein stability index (Saccharomyces cerevisiae [1])	protein stability index (Saccharomyces cerevisiae [2])
KKHKKGQKQKAN	0.308	0.709
PDIRNHLIKLLN	0.134	0.675
KKHKKGQAQKIN	0.0853	0.605
ARWRVGLWRGHS	0.602	0.691
CTSCGYKFRVNN	0.282	0.687
FSMRWTFRYWVNQ	0.141	0.558
RLIQPLPAQFLN	0.0736	0.602
KKHKKGQLQKIN	0.121	0.628
QSLAASFWRVVG	0.13	0.698
VRGAVGGWRLTG	0.269	0.659
NVVYLSCVACIN	0.0156	0.0341
KKHAKGQKQKIN	0.121	0.565
GKHKKGQKQKIN	0.133	0.585
LWILRQKMNHQN	0.124	0.695
IVVYLSCVACIN	0.0176	0.0302
FSMRWTHRYWVN	0.0511	0.561
PDKRNHRIKLLN	0.159	0.661
ARWRVGLWRGAD	0.694	0.672
LKILRQKMYHQN	0.249	0.658
RLIQPLPPQFLN	0.132	0.521
PDKRNHLEKLLN	0.292	0.63
LKILRQKMNHQC	0.184	0.635
KKHKKGQKQKIK	0.634	0.553
LKQLRQKMNHQN	0.212	0.663

From the supplement of paper PMC10724198
